How the values were obtained:
Test in all cases: cell-based or functional assay
[1] = target: BG505 (T332N) N301A (HIV-1)
[2] = target: HIV-1 Env of pseudovirus ZM247v1 (Rev-) (HIV-1)
[3] = target: HIV-1 Env of pseudovirus 1394C9G1 (Rev-) (HIV-1)
[4] = target: HIV-1 Env of pseudovirus C3347.H1 (HIV-1)
[5] = target: HIV-1 envelope (Env) of pseudovirus CNE19 (HIV-1)
[6] = target: HIV-1 envelope (Env) of pseudovirus P0402_c2_11 (HIV-1)
[7] = target: HIV-1 envelope (Env) of pseudovirus Ce1176_A3 (HIV-1)
[8] = target: HIV-1 envelope (Env) of pseudovirus CNE30 (HIV-1)
[9] = target: HIV-1 envelope (Env) of pseudovirus ZM247v1 (Rev-) (HIV-1)
[10] = target: HIV-1 envelope (Env) of pseudovirus 6952.v1.c20 (HIV-1)
[11] = target: HIV-1 envelope (Env) of pseudovirus CAP45.2.00.G3 (HIV-1)
[12] = target: HIV-1 envelope (Env) of pseudovirus CNE58 (HIV-1)
[13] = target: HIV-1 envelope (Env) of pseudovirus RHPA4259.7 (HIV-1)
[14] = target: HIV-1 envelope (Env) of pseudovirus HIV-16055-2.3 (HIV-1)
[15] = target: HIV-1 envelope (Env) of pseudovirus 7030102001E5 (Rev-) (HIV-1)
[16] = target: HIV-1 envelope (Env) of pseudovirus 6535.3 (HIV-1)
[17] = target: HIV-1 envelope (Env) of pseudovirus 1394C9G1 (Rev-) (HIV-1)
[18] = target: HIV-1 envelope (Env) of pseudovirus BJOX015000.11.5 (HIV-1)
[19] = target: HIV-1 envelope (Env) of pseudovirus T250-4 (HIV-1)
[20] = target: HIV-1 envelope (Env) of pseudovirus T255-34 (HIV-1)
[21] = target: HIV-1 envelope (Env) of pseudovirus QH0692.42 (HIV-1)
[22] = target: HIV-1 envelope (Env) of pseudovirus 89-F1_2_25 (HIV-1)
[23] = target: HIV-1 envelope (Env) of pseudovirus YU2_N160K (HIV-1) (UniProt P35961)
[24] = target: HIV-1 envelope (Env) of pseudovirus AC10.0.29 (HIV-1)
[25] = target: HIV-1 envelope (Env) of pseudovirus PVO.4 (HIV-1)
[26] = target: HIV-1 envelope (Env) of pseudovirus 191084 B7-19 (HIV-1)
[27] = target: HIV-1 envelope (Env) of pseudovirus 3103.v3.c10 (HIV-1)
[28] = target: HIV-1 envelope (Env) of pseudovirus CNE52 (HIV-1)
[29] = target: HIV-1 envelope (Env) of pseudovirus HIV-0013095-2.11 (HIV-1)
[30] = target: HIV-1 envelope (Env) of pseudovirus 191821_E6_1 (HIV-1)
[31] = target: HIV-1 envelope (Env) of pseudovirus CAP210.2.00.E8 (HIV-1)
[32] = target: HIV-1 envelope (Env) of pseudovirus MS208.A1 (HIV-1)
[33] = target: HIV-1 envelope (Env) of pseudovirus X2131_C1_B5 (HIV-1)
[34] = target: HIV-1 envelope (Env) of pseudovirus ZM233M.PB6 (HIV-1)
[35] = target: HIV-1 envelope (Env) of pseudovirus R3265.c06 (HIV-1)
[36] = target: HIV-1 envelope (Env) of pseudovirus X1254_c3 (HIV-1)
[37] = target: HIV-1 envelope (Env) of pseudovirus TRJO4551.58 (HIV-1)
[38] = target: HIV-1 envelope (Env) of pseudovirus CAAN5342.A2 (HIV-1)

354BG8 (antibody)
IC50 in TZM-bl assay [1]: 0.004 µg/mL

BG18 IgG (354BG18) (antibody)
IC50 in TZM-bl assay [2]: 1.45 µg/mL
IC80 in TZM-bl assay [2]: 8.72 µg/mL
IC50 in TZM-bl assay [3]: 0.029 µg/mL
IC80 in TZM-bl assay [3]: 0.35 µg/mL

PGT121 (antibody)
IC50 in TZM-bl assay [4]: > 10 µg/mL
IC80 in TZM-bl assay [4]: > 10 µg/mL

BG1 (antibody)
IC50 in TZM-bl assay [5]: 1.27 µg/mL
IC80 in TZM-bl assay [5]: 10.9 µg/mL
IC50 in TZM-bl assay [6]: > 30 µg/mL
IC80 in TZM-bl assay [6]: > 30 µg/mL
IC50 in TZM-bl assay [7]: 0.031 µg/mL
IC80 in TZM-bl assay [7]: 0.165 µg/mL
IC50 in TZM-bl assay [8]: > 30 µg/mL
IC80 in TZM-bl assay [8]: > 30 µg/mL
IC50 in TZM-bl assay [9]: > 30 µg/mL
IC80 in TZM-bl assay [9]: > 30 µg/mL
IC50 in TZM-bl assay [10]: > 30 µg/mL
IC80 in TZM-bl assay [10]: > 30 µg/mL
IC50 in TZM-bl assay [11]: 0.149 µg/mL
IC80 in TZM-bl assay [11]: 0.383 µg/mL
IC50 in TZM-bl assay [12]: > 30 µg/mL
IC80 in TZM-bl assay [12]: > 30 µg/mL
IC50 in TZM-bl assay [13]: > 30 µg/mL
IC80 in TZM-bl assay [13]: > 30 µg/mL
IC50 in TZM-bl assay [14]: 4.3 µg/mL
IC80 in TZM-bl assay [14]: 16.9 µg/mL
IC50 in TZM-bl assay [15]: > 30 µg/mL
IC80 in TZM-bl assay [15]: > 30 µg/mL
IC50 in TZM-bl assay [16]: 0.322 µg/mL
IC80 in TZM-bl assay [16]: 1.13 µg/mL
IC50 in TZM-bl assay [17]: 1.28 µg/mL
IC80 in TZM-bl assay [17]: 7.25 µg/mL
IC50 in TZM-bl assay [18]: > 30 µg/mL
IC80 in TZM-bl assay [18]: > 30 µg/mL
IC50 in TZM-bl assay [19]: 3.92 µg/mL
IC80 in TZM-bl assay [19]: > 30 µg/mL
IC50 in TZM-bl assay [20]: 11.6 µg/mL
IC80 in TZM-bl assay [20]: > 30 µg/mL
IC50 in TZM-bl assay [21]: > 30 µg/mL
IC80 in TZM-bl assay [21]: > 30 µg/mL
IC50 in TZM-bl assay [22]: > 30 µg/mL
IC80 in TZM-bl assay [22]: > 30 µg/mL
IC50 in TZM-bl assay [23]: > 30 µg/mL
IC80 in TZM-bl assay [23]: > 30 µg/mL
IC50 in TZM-bl assay [24]: 0.012 µg/mL
IC80 in TZM-bl assay [24]: 0.043 µg/mL
IC50 in TZM-bl assay [25]: > 30 µg/mL
IC80 in TZM-bl assay [25]: > 30 µg/mL
IC50 in TZM-bl assay [26]: > 30 µg/mL
IC80 in TZM-bl assay [26]: > 30 µg/mL
IC50 in TZM-bl assay [27]: > 30 µg/mL
IC80 in TZM-bl assay [27]: > 30 µg/mL
IC50 in TZM-bl assay [28]: 0.975 µg/mL
IC80 in TZM-bl assay [28]: 5.01 µg/mL
IC50 in TZM-bl assay [29]: > 30 µg/mL
IC80 in TZM-bl assay [29]: > 30 µg/mL
IC50 in TZM-bl assay [30]: > 30 µg/mL
IC80 in TZM-bl assay [30]: > 30 µg/mL
IC50 in TZM-bl assay [31]: > 30 µg/mL
IC80 in TZM-bl assay [31]: > 30 µg/mL
IC50 in TZM-bl assay [32]: 1.48 µg/mL
IC80 in TZM-bl assay [32]: 6.54 µg/mL
IC50 in TZM-bl assay [33]: 0.116 µg/mL
IC80 in TZM-bl assay [33]: 0.313 µg/mL
IC50 in TZM-bl assay [34]: > 30 µg/mL
IC80 in TZM-bl assay [34]: > 30 µg/mL
IC50 in TZM-bl assay [35]: 0.611 µg/mL
IC80 in TZM-bl assay [35]: 3.44 µg/mL
IC50 in TZM-bl assay [36]: 0.048 µg/mL
IC80 in TZM-bl assay [36]: 0.086 µg/mL
IC50 in TZM-bl assay [37]: > 30 µg/mL
IC80 in TZM-bl assay [37]: > 30 µg/mL
IC50 in TZM-bl assay [38]: > 30 µg/mL
IC80 in TZM-bl assay [38]: > 30 µg/mL
